Test results taken from patent US20250207140 (published 2025).

Target: SARS-CoV-2 spike protein (original strain) (SARS-CoV-2, UniProt P0DTC2 P0DTC2:14-1273)
Experiment: flow

B1: SEQ ID NO: 14 aptamer (72 nt truncation of SEQ ID NO: 1) (ssRNA)
RNA: GGGAGAGCGGAAGCGUGCUGGGCCCCUUUGACCAUAGGAGGCAAGUCUUAUGUUCAAACUGGUCCAUAACCC
modifications: 2'-F pyrimidines
B1 gave a Kd of 20.7 nM.
